# What was measured:
# Details in all cases: 20 nM; 72 h
# [1] = test system: MCF10A; assay: one-nucleolus phenotype percent effect (relative to siNT 0% and siNOL11 100%); higher = more cells with one nucleolus (ribosome biogenesis inhibition)
# Description: (§1)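 After 72 h, cells were fixed and stained with Hoechst and anti-fibrillarin, and nucleoli per nucleus were counted with CellProfiler. Values are plate-adjusted percent effect for the one-nucleolus and 5+ nucleoli phenotypes, normalised to siNT (0%) and to the positive controls siNOL11 or siKIF11 (100%), as the mean of biological triplicates. Percent viability is the nuclei count relative to siNT.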
# [2] = test system: MCF10A; assay: percent viability (nuclei count relative to siNT); higher = more viable cells
# Description: as §1
# [3] = test system: MCF10A; assay: 5+ nucleoli phenotype percent effect (relative to siNT 0% and siKIF11 100%); higher = more cells with five or more nucleoli
# Description: as §1
Sequence,one-nucleolus phenotype percent effect [1],percent viability [2],5+ nucleoli phenotype percent effect [3]
UAACAUAAUAGUGUGGAUUGA [hsa-miR-4803],-25%,168%,40.9%
UGGGCGAGGGCGGCUGAGCGGC [hsa-miR-6729-5p],6.3%,29%,-3.58%
CAUCAGAAUUCAUGGAGGCUAG [hsa-miR-2115-3p],15.3%,39%,-5.23%
UGGGUCUUUGCGGGCGAGAUGA [hsa-miR-193a-5p],26.5%,40.4%,-18.7%
GUCCUCCAGGCCAUGAGCUGCGG [hsa-miR-4691-5p],-11.3%,89.2%,47.9%
GGGGGGGCAGGAGGGGCUCAGGG [hsa-miR-328-5p],-28.4%,129%,33.9%
AUGGAAUGUAUAUACGGAAUA [hsa-miR-3673],63.4%,35.7%,-48.6%
UGGGUUUACGUUGGGAGAACU [hsa-miR-629-5p],17.7%,52.3%,-19.1%
UGUUUUGAUAACAGUAAUGU [hsa-miR-2052],0.685%,144%,5.44%
AAAAGUAAUUGCGGGUUUUGCC [hsa-miR-548as-5p],-24.9%,160%,35.9%
UCAGCAAACAUUUAUUGUGUGC [hsa-miR-545-3p],-21.8%,124%,27.8%
GGGAUAUGAAGAAAAAU [hsa-miR-3201],-15.6%,59.6%,40.5%
AAUCCUUUGUCCCUGGGUGAGA [hsa-miR-501-5p],22.1%,33.2%,-22.9%
ACCCGCCCGUCUCCCCACAG [hsa-miR-7108-3p],-20.7%,110%,28.2%
CACAUGGCCGAAACAGAGAAGU [hsa-miR-942-3p],-19.9%,32.7%,-8.03%
AACAUUCAUUGCUGUCGGUGGGU [hsa-miR-181b-5p],1.83%,93.5%,10.9%
CGUGGAGGACGAGGAGGAGGC [hsa-miR-7847-3p],4.16%,67.5%,-7.84%
UGCCAACCGUCAGAGCCCAGA [hsa-miR-5189-3p],-1.7%,59.9%,-12%
CACCUCUCCUGGCAUCGCCCC [hsa-miR-6800-3p],-20.1%,128%,21.6%
UAGUGAGUUAGAGAUGCAGAGCC [hsa-miR-3174],12.5%,38.1%,-38.2%
CAAGUCACUAGUGGUUCCGUU [hsa-miR-224-5p],15.4%,38.7%,-41%
AGGGGGAAAGUUCUAUAGUCC [hsa-miR-625-5p],21.3%,12.6%,-16.9%
CGCAGGGCCCUGGCGCAGGCAU [hsa-miR-6836-5p],28.5%,37.7%,-6.59%
AAUUGCACUUUAGCAAUGGUGA [hsa-miR-367-3p],-12.8%,111%,18%
